The values that follow come from paper PMC10055720.

In this test the target is human TERT∆TEN D788R, FLAG-tagged, co-expressed with TR (human).

In the case of “human TERT TEN domain (aa 2–197), Myc-tagged (from UniProt O14746 2-197) (domain or fragment)”, the POT1–TPP1-stimulated processivity in the trans complementation primer extension assay, relative to WT stood at 64% and the total telomerase activity in the trans complementation primer extension assay, relative to WT TERT∆TEN with TEN was 24 % of WT.
